According to doi:10.1101/2020.12.01.406983 (bioRxiv, 2020):

Target: canine parvovirus (CPV) capsid (Canine parvovirus type 2, strain CPV-d …, UniProt P17455)
Test: cryo-EM structure

Sequence of canine parvovirus (CPV) capsid (P17455 whole entry, looked up): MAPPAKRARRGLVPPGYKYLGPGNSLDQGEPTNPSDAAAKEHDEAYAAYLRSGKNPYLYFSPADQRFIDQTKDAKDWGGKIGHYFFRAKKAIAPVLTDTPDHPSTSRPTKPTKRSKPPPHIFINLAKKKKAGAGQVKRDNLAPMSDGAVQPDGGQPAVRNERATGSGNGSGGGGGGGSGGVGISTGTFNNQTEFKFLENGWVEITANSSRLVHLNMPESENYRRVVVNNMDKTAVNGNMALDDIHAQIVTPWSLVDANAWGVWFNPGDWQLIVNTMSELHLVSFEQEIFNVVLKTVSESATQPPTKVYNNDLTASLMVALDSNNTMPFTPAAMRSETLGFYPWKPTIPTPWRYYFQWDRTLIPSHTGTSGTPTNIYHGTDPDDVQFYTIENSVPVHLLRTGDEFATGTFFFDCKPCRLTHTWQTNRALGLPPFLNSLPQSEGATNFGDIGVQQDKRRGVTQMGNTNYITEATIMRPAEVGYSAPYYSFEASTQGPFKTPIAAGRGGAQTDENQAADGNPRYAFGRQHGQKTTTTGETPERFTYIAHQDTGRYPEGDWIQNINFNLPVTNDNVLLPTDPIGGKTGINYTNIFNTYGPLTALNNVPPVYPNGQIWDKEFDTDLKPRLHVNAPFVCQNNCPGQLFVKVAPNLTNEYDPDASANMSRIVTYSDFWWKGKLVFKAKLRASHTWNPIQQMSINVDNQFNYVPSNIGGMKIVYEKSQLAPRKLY

B1: Fab of MAb14 (Fab 14) (Fab, V domains shown)
VH: AVHLQGTELVKPGASAGVKLSCKASGYTFTNYDMNWVRQRPEQGLEWIGWIFPGDGSTRYNEKFKGKATLTTDKSSSTAYQLNRLTSEDSAVYFCARRGSHGSYSFAYWGQGTLVTVSG
VL: DIVMTQSHKFMSTSVGDRVSITCKASQDVNTALAWYQQIPGQSPKLLIYSASNRYTGVPDRFTASGSGTDFTFTISSVQAEDLALYYCQQHYTTPWTFGGGTKLEIK
stoichiometry N: ~60 Fab 14 molecules per capsid
